Test results: patent US10227388B2, “Peptides and combination of peptides for use in immunotherapy against non-small cell lung cancer and other cancers” (immatics biotechnologies GmbH, priority 2015, dated 2019)

Biological target: HLA-A*02:01 (Homo sapiens, UniProt P04439, D140Y/D185E/D98H/E176V/E277Q/G131W/G231S/I119V/I121R/I166T/I218V/L300P/L318F/N151K/N90K/P208A/P217A/Q86G/Q94H/R138H/R169H/T345S)
Assay: MHC binding assay (UV-ligand exchange, ELISA, peptide exchange yield)
Conditions: binding of HLA-class I restricted peptides to HLA-A*02:01
Outline: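 Peptide–HLA-A*02:01 complexes made by UV-ligand exchange of a UV-cleavable peptide for the test peptide. Exchange yield measured by ELISA: 100-fold diluted monomers captured on streptavidin, 1 h at 37° C., detected with HRP anti-β2m and TMB, absorbance at 450 nm.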

With “172 (VLYSYTIITV; listed as Homo sapiens) [compound 172]” the “Peptide exchange (MHC class I binding score, peptide exchange yield)” value (from here on “Peptide exchange”) was “″++″ (≥20% = ++)”.
For “173 (LLDSASAGLYL; listed as Homo sapiens) [compound 173]”, the “Peptide exchange” value was “″+++″ (≥50% = +++)”.
“174 (ALAQYLITA; listed as Homo sapiens) [compound 174]” was tested, and the “Peptide exchange” value was “″+++″ (≥50% = +++)”.
For “175 (YLFENISQL; listed as Homo sapiens) [compound 175]”, the “Peptide exchange” value was “″+++″ (≥50% = +++)”.
In the case of “176 (YLMEGSYNKVFL; listed as Homo sapiens) [compound 176]”, the “Peptide exchange” value is reported as “″++″ (≥20% = ++)”.
In the case of “177 (YLLPEEYTSTL; listed as Homo sapiens) [compound 177]”, the “Peptide exchange” value is reported as “″++++″ (≥75% = ++++)”.
“178 (ALTEIAFVV; listed as Homo sapiens) [compound 178]” was tested, and the “Peptide exchange” value was “″++++″ (≥75% = ++++)”.
For “179 (KVLNELYTV; listed as Homo sapiens) [compound 179]”, the “Peptide exchange” value was “″+++″ (≥50% = +++)”.
With “180 (FQIDPHSGLVTV; listed as Homo sapiens) [compound 180]” the “Peptide exchange” value was “″++″ (≥20% = ++)”.
In the case of “181 (LLWAGTAFQV; listed as Homo sapiens) [compound 181]”, the “Peptide exchange” value is reported as “″+++″ (≥50% = +++)”.
For “182 (MLLEAPGIFL; listed as Homo sapiens) [compound 182]”, the “Peptide exchange” value was “″+++″ (≥50% = +++)”.
“183 (FGLDLVTEL; listed as Homo sapiens) [compound 183]” was tested, and the “Peptide exchange” value was “″+++″ (≥50% = +++)”.
In the case of “184 (YLMDINGKMWL; listed as Homo sapiens) [compound 184]”, the “Peptide exchange” value is reported as “″+++″ (≥50% = +++)”.
In the case of “185 (FLIDDKGYTL; listed as Homo sapiens) [compound 185]”, the “Peptide exchange” value is reported as “″++″ (≥20% = ++)”.
“186 (TLFFQQNAL; listed as Homo sapiens) [compound 186]” was tested, and the “Peptide exchange” value was “″++″ (≥20% = ++)”.
For “187 (RQISIRGIVGV; listed as Homo sapiens) [compound 187]”, the “Peptide exchange” value was “″+++″ (≥50% = +++)”.
In the case of “188 (GLFPVTPEAV; listed as Homo sapiens) [compound 188]”, the “Peptide exchange” value is reported as “″+++″ (≥50% = +++)”.
In the case of “189 (ALQRKLPYV; listed as Homo sapiens) [compound 189]”, the “Peptide exchange” value is reported as “″+++″ (≥50% = +++)”.
With “190 (FLSSLTETI; listed as Homo sapiens) [compound 190]” the “Peptide exchange” value was “″+++″ (≥50% = +++)”.
“191 (LLQEGQALEYV; listed as Homo sapiens) [compound 191]” was tested, and the “Peptide exchange” value was “″++″ (≥20% = ++)”.
“192 (KMLDGASFTL; listed as Homo sapiens) [compound 192]” was tested, and the “Peptide exchange” value was “″+++″ (≥50% = +++)”.
In the case of “193 (QLLDADGFLNV; listed as Homo sapiens) [compound 193]”, the “Peptide exchange” value is reported as “″+++″ (≥50% = +++)”.
“194 (ALPLFVITV; listed as Homo sapiens) [compound 194]” was tested, and the “Peptide exchange” value was “″+++″ (≥50% = +++)”.
For “195 (GLFADLLPRL; listed as Homo sapiens) [compound 195]”, the “Peptide exchange” value was “″+++″ (≥50% = +++)”.
“196 (YLYSVEIKL; listed as Homo sapiens) [compound 196]” was tested, and the “Peptide exchange” value was “″++++″ (≥75% = ++++)”.
In the case of “197 (ALGPEGGRV; listed as Homo sapiens) [compound 197]”, the “Peptide exchange” value is reported as “″++″ (≥20% = ++)”.
For “198 (KTINKVPTV; listed as Homo sapiens) [compound 198]”, the “Peptide exchange” value was “″+++″ (≥50% = +++)”.
